We go through 6 proteins from article PMC10709652, “The separation pin distinguishes the pro– and anti–recombinogenic functions of Saccharomyces cerevisiae Srs2” (Nature Communications, 2023).

One may read the Km as the concentration of substrate that gives half-maximal velocity.

The labels stand for the following.
B1: Srs2^898 (GFP-Srs2 1-898) (Saccharomyces cerevisiae S288C) (protein)
chain: MSSNNDLWLHLVSQLNTQQRAAALFDYTRGLQVIAGPGTGKTKVLTSRVAYLILHHHIHPRDIIVTTFTNKAANEMKERLQEMLRGAGVNISELLIGTFHSICLKILYRFGHLVDLQKDWRIIDEKEIDVILDDMIEKVPDQIRDYASSITRKVNLCMPSKNGDEWTIHPKLIKKQISKLKSNAILPEEYILDSNHDAALGYFYQIYQSELSKKNTLDFDDLLMYTFRLLTRVRVLSNIKHVLVDEFQDTNGIQLDLMFLFAKGNHHLSRGMTIVGDPDQSIYAFRNALAHNFLEMGRKCPIEYSTIILVENYRSSQKILNTSEILITQQNKGRQNRAPLRAQFDLDFPPVYMNFPAYFLEAPSLVRELLYLKALPNLFTFNDFAILVRQRRQIKRIESALIEHRIPYKIIRGHSFWDSKETRAMLNLLKLIFSPNDKHAILASLLYPARGLGPATGEKIKNALDTLATDVSCFQILKDISSKKIMLDIPTKGRSVIADFISMIENCQLLLQSTLLGGLSDLFDKLYELSGLKYEYLYKDGKKKNDQLEKSEPNLLNARHKNIELLKNYFLALLSKSESSDKEKNEAIKAATDEAEPIENKVITPKEYLRNFFNSLSLHSDAAEEEESESNKDAKIKREKNGFVTISTIHGAKGLEWPVVFIPGCEEGIIPCVFNDDKKDESEEDEEEDQENSKKDASPKKTRVLSVEDSIDEERRMFFVAQTRAKYLLYLSNTVTVEDVDRPRIASRFLTTDLIKAMSDSQKLFESTNSIKKLYRILNKKPPAEDDKLFSLDQLRKDYNQFIENRRERMIWQGIQMNDVYGIQLSRNKLLGSVSDFTSAADQLRLETQNSIFPQKKLIEKSRPSKINGNYAPKSRVKSPEKRYAPETTSFHSPTKKK
notes: residues 1-898 of 1174 (C-terminal 276 residues omitted), N-terminal GFP tag kept, pET15b, Talon purified; expressed in E. coli Rosetta2 (DE3)
B2: Srs2^898 (GFP-Srs2 1-898) (Saccharomyces cerevisiae S288C; F219A) (protein)
chain: MSSNNDLWLHLVSQLNTQQRAAALFDYTRGLQVIAGPGTGKTKVLTSRVAYLILHHHIHPRDIIVTTFTNKAANEMKERLQEMLRGAGVNISELLIGTFHSICLKILYRFGHLVDLQKDWRIIDEKEIDVILDDMIEKVPDQIRDYASSITRKVNLCMPSKNGDEWTIHPKLIKKQISKLKSNAILPEEYILDSNHDAALGYFYQIYQSELSKKNTLDADDLLMYTFRLLTRVRVLSNIKHVLVDEFQDTNGIQLDLMFLFAKGNHHLSRGMTIVGDPDQSIYAFRNALAHNFLEMGRKCPIEYSTIILVENYRSSQKILNTSEILITQQNKGRQNRAPLRAQFDLDFPPVYMNFPAYFLEAPSLVRELLYLKALPNLFTFNDFAILVRQRRQIKRIESALIEHRIPYKIIRGHSFWDSKETRAMLNLLKLIFSPNDKHAILASLLYPARGLGPATGEKIKNALDTLATDVSCFQILKDISSKKIMLDIPTKGRSVIADFISMIENCQLLLQSTLLGGLSDLFDKLYELSGLKYEYLYKDGKKKNDQLEKSEPNLLNARHKNIELLKNYFLALLSKSESSDKEKNEAIKAATDEAEPIENKVITPKEYLRNFFNSLSLHSDAAEEEESESNKDAKIKREKNGFVTISTIHGAKGLEWPVVFIPGCEEGIIPCVFNDDKKDESEEDEEEDQENSKKDASPKKTRVLSVEDSIDEERRMFFVAQTRAKYLLYLSNTVTVEDVDRPRIASRFLTTDLIKAMSDSQKLFESTNSIKKLYRILNKKPPAEDDKLFSLDQLRKDYNQFIENRRERMIWQGIQMNDVYGIQLSRNKLLGSVSDFTSAADQLRLETQNSIFPQKKLIEKSRPSKINGNYAPKSRVKSPEKRYAPETTSFHSPTKKK
notes: as for B1
B3: Srs2^898 (GFP-Srs2 1-898) (Saccharomyces cerevisiae S288C; Y283A) (protein)
chain: MSSNNDLWLHLVSQLNTQQRAAALFDYTRGLQVIAGPGTGKTKVLTSRVAYLILHHHIHPRDIIVTTFTNKAANEMKERLQEMLRGAGVNISELLIGTFHSICLKILYRFGHLVDLQKDWRIIDEKEIDVILDDMIEKVPDQIRDYASSITRKVNLCMPSKNGDEWTIHPKLIKKQISKLKSNAILPEEYILDSNHDAALGYFYQIYQSELSKKNTLDFDDLLMYTFRLLTRVRVLSNIKHVLVDEFQDTNGIQLDLMFLFAKGNHHLSRGMTIVGDPDQSIAAFRNALAHNFLEMGRKCPIEYSTIILVENYRSSQKILNTSEILITQQNKGRQNRAPLRAQFDLDFPPVYMNFPAYFLEAPSLVRELLYLKALPNLFTFNDFAILVRQRRQIKRIESALIEHRIPYKIIRGHSFWDSKETRAMLNLLKLIFSPNDKHAILASLLYPARGLGPATGEKIKNALDTLATDVSCFQILKDISSKKIMLDIPTKGRSVIADFISMIENCQLLLQSTLLGGLSDLFDKLYELSGLKYEYLYKDGKKKNDQLEKSEPNLLNARHKNIELLKNYFLALLSKSESSDKEKNEAIKAATDEAEPIENKVITPKEYLRNFFNSLSLHSDAAEEEESESNKDAKIKREKNGFVTISTIHGAKGLEWPVVFIPGCEEGIIPCVFNDDKKDESEEDEEEDQENSKKDASPKKTRVLSVEDSIDEERRMFFVAQTRAKYLLYLSNTVTVEDVDRPRIASRFLTTDLIKAMSDSQKLFESTNSIKKLYRILNKKPPAEDDKLFSLDQLRKDYNQFIENRRERMIWQGIQMNDVYGIQLSRNKLLGSVSDFTSAADQLRLETQNSIFPQKKLIEKSRPSKINGNYAPKSRVKSPEKRYAPETTSFHSPTKKK
notes: as for B1
B4: Srs2^898 (GFP-Srs2 1-898) (Saccharomyces cerevisiae S288C; H100A) (protein)
chain: MSSNNDLWLHLVSQLNTQQRAAALFDYTRGLQVIAGPGTGKTKVLTSRVAYLILHHHIHPRDIIVTTFTNKAANEMKERLQEMLRGAGVNISELLIGTFASICLKILYRFGHLVDLQKDWRIIDEKEIDVILDDMIEKVPDQIRDYASSITRKVNLCMPSKNGDEWTIHPKLIKKQISKLKSNAILPEEYILDSNHDAALGYFYQIYQSELSKKNTLDFDDLLMYTFRLLTRVRVLSNIKHVLVDEFQDTNGIQLDLMFLFAKGNHHLSRGMTIVGDPDQSIYAFRNALAHNFLEMGRKCPIEYSTIILVENYRSSQKILNTSEILITQQNKGRQNRAPLRAQFDLDFPPVYMNFPAYFLEAPSLVRELLYLKALPNLFTFNDFAILVRQRRQIKRIESALIEHRIPYKIIRGHSFWDSKETRAMLNLLKLIFSPNDKHAILASLLYPARGLGPATGEKIKNALDTLATDVSCFQILKDISSKKIMLDIPTKGRSVIADFISMIENCQLLLQSTLLGGLSDLFDKLYELSGLKYEYLYKDGKKKNDQLEKSEPNLLNARHKNIELLKNYFLALLSKSESSDKEKNEAIKAATDEAEPIENKVITPKEYLRNFFNSLSLHSDAAEEEESESNKDAKIKREKNGFVTISTIHGAKGLEWPVVFIPGCEEGIIPCVFNDDKKDESEEDEEEDQENSKKDASPKKTRVLSVEDSIDEERRMFFVAQTRAKYLLYLSNTVTVEDVDRPRIASRFLTTDLIKAMSDSQKLFESTNSIKKLYRILNKKPPAEDDKLFSLDQLRKDYNQFIENRRERMIWQGIQMNDVYGIQLSRNKLLGSVSDFTSAADQLRLETQNSIFPQKKLIEKSRPSKINGNYAPKSRVKSPEKRYAPETTSFHSPTKKK
notes: as for B1
B5: Srs2^898 (GFP-Srs2 1-898) (Saccharomyces cerevisiae S288C; N70A) (protein)
chain: MSSNNDLWLHLVSQLNTQQRAAALFDYTRGLQVIAGPGTGKTKVLTSRVAYLILHHHIHPRDIIVTTFTAKAANEMKERLQEMLRGAGVNISELLIGTFHSICLKILYRFGHLVDLQKDWRIIDEKEIDVILDDMIEKVPDQIRDYASSITRKVNLCMPSKNGDEWTIHPKLIKKQISKLKSNAILPEEYILDSNHDAALGYFYQIYQSELSKKNTLDFDDLLMYTFRLLTRVRVLSNIKHVLVDEFQDTNGIQLDLMFLFAKGNHHLSRGMTIVGDPDQSIYAFRNALAHNFLEMGRKCPIEYSTIILVENYRSSQKILNTSEILITQQNKGRQNRAPLRAQFDLDFPPVYMNFPAYFLEAPSLVRELLYLKALPNLFTFNDFAILVRQRRQIKRIESALIEHRIPYKIIRGHSFWDSKETRAMLNLLKLIFSPNDKHAILASLLYPARGLGPATGEKIKNALDTLATDVSCFQILKDISSKKIMLDIPTKGRSVIADFISMIENCQLLLQSTLLGGLSDLFDKLYELSGLKYEYLYKDGKKKNDQLEKSEPNLLNARHKNIELLKNYFLALLSKSESSDKEKNEAIKAATDEAEPIENKVITPKEYLRNFFNSLSLHSDAAEEEESESNKDAKIKREKNGFVTISTIHGAKGLEWPVVFIPGCEEGIIPCVFNDDKKDESEEDEEEDQENSKKDASPKKTRVLSVEDSIDEERRMFFVAQTRAKYLLYLSNTVTVEDVDRPRIASRFLTTDLIKAMSDSQKLFESTNSIKKLYRILNKKPPAEDDKLFSLDQLRKDYNQFIENRRERMIWQGIQMNDVYGIQLSRNKLLGSVSDFTSAADQLRLETQNSIFPQKKLIEKSRPSKINGNYAPKSRVKSPEKRYAPETTSFHSPTKKK
notes: as for B1
B6: Srs2^898 (GFP-Srs2 1-898) (Saccharomyces cerevisiae S288C; R389A) (protein)
chain: MSSNNDLWLHLVSQLNTQQRAAALFDYTRGLQVIAGPGTGKTKVLTSRVAYLILHHHIHPRDIIVTTFTNKAANEMKERLQEMLRGAGVNISELLIGTFHSICLKILYRFGHLVDLQKDWRIIDEKEIDVILDDMIEKVPDQIRDYASSITRKVNLCMPSKNGDEWTIHPKLIKKQISKLKSNAILPEEYILDSNHDAALGYFYQIYQSELSKKNTLDFDDLLMYTFRLLTRVRVLSNIKHVLVDEFQDTNGIQLDLMFLFAKGNHHLSRGMTIVGDPDQSIYAFRNALAHNFLEMGRKCPIEYSTIILVENYRSSQKILNTSEILITQQNKGRQNRAPLRAQFDLDFPPVYMNFPAYFLEAPSLVRELLYLKALPNLFTFNDFAILVAQRRQIKRIESALIEHRIPYKIIRGHSFWDSKETRAMLNLLKLIFSPNDKHAILASLLYPARGLGPATGEKIKNALDTLATDVSCFQILKDISSKKIMLDIPTKGRSVIADFISMIENCQLLLQSTLLGGLSDLFDKLYELSGLKYEYLYKDGKKKNDQLEKSEPNLLNARHKNIELLKNYFLALLSKSESSDKEKNEAIKAATDEAEPIENKVITPKEYLRNFFNSLSLHSDAAEEEESESNKDAKIKREKNGFVTISTIHGAKGLEWPVVFIPGCEEGIIPCVFNDDKKDESEEDEEEDQENSKKDASPKKTRVLSVEDSIDEERRMFFVAQTRAKYLLYLSNTVTVEDVDRPRIASRFLTTDLIKAMSDSQKLFESTNSIKKLYRILNKKPPAEDDKLFSLDQLRKDYNQFIENRRERMIWQGIQMNDVYGIQLSRNKLLGSVSDFTSAADQLRLETQNSIFPQKKLIEKSRPSKINGNYAPKSRVKSPEKRYAPETTSFHSPTKKK
notes: as for B1

Substrate in the first data set: Nc1ncnc2c1ncn2[C@@H]1O[C@H](COP(=O)(O)OP(=O)(O)OP(=O)(O)O)[C@@H](O)[C@H]1O
In words: ATP hydrolysis, gamma-32P-ATP, thin layer chromatography. In kind it is biochemical, Saccharomyces cerevisiae. As to conditions: M13 ssDNA 2.5 µM (nucleotides), 2 mM MgCl2, 100 mM KCl, pH 7.6, 30 °C, 40 nM protein.
Turning to B1, the Km was 1580 ± 710 µM and the kcat was found to be 51 ± 8 s⁻¹.

Substrate in the next data set: Nc1ncnc2c1ncn2[C@@H]1O[C@H](COP(=O)(O)OP(=O)(O)OP(=O)(O)O)[C@@H](O)[C@H]1O
Described as above. In kind it is biochemical, Saccharomyces cerevisiae. Particulars: M13 ssDNA 2.5 µM (nucleotides), 2 mM MgCl2, 100 mM KCl, pH 7.6, 30 °C, 40 nM protein. The source holds these as a separate data set. From the text: ATP hydrolysis, gamma-32P-ATP, thin layer chromatography on Srs2^898 (GFP-Srs2 1-898) | N70A, H100A, F219A, Y283A, R268A, and R389A mutant proteins were all moderately affected
Consider B2, for which the Km was 1510 ± 660 µM and the kcat was determined as 42 ± 6 sec–1.
In the same order, the values of B3 are 1520 ± 630 µM and 44 ± 6 sec–1.
With B4, the Km worked out at 1330 ± 710 µM and the kcat was determined as 45 ± 8 sec–1.
Take B5: the Michaelis constant (Km) is 1320 ± 670 µM and the kcat was 47 ± 7 sec–1.
The like results for B6 were, in that order, 1600 ± 720 µM and 44 ± 7 sec–1.
